The Immune Epitope Database (IEDB)

Experiments:
[1] = biological target: HLA-A*02:02; test: IEDB peptide-MHC binding, cellular MHC/competitive/fluorescence; ≥ and ≤ were set here for values at or beyond the usual limits of such assays
[2] = biological target: HLA-A*02:03; test: IEDB peptide-MHC binding, purified MHC/competitive/radioactivity; ≥ and ≤ were set here for values at or beyond the usual limits of such assays
[3] = biological target: HLA-A*02:06; test: as above
[4] = biological target: HLA-A*68:02; test: as above
[5] = biological target: HLA-A*02:01; test: IEDB peptide-MHC binding, cellular MHC/competitive/fluorescence; ≥ and ≤ were set here for values at or beyond the usual limits of such assays
[6] = biological target: HLA-A*02:06; test: as above
[7] = biological target: HLA-A*68:02; test: as above
[8] = biological target: HLA-A*02:02; test: IEDB peptide-MHC binding, purified MHC/competitive/radioactivity; ≥ and ≤ were set here for values at or beyond the usual limits of such assays
[9] = biological target: HLA-A*02:01; test: as above
[10] = source organism: Vaccinia virus WR
[11] = source organism: Influenza A virus
[12] = source organism: Mammarenavirus guanaritoense
[13] = source organism: Mammarenavirus choriomeningitidis

Sequence	IC50 [2, 10] [µM]	IC50 [5, 10] [µM]	IC50 [6, 10] [µM]	IC50 [7, 10] [µM]	IC50 [8, 10] [µM]	further results
NTFVNFNSV	0.1					IC50 [1, 10]: 5.02 µM; IC50 [3, 10]: 0.00035 µM; IC50 [4, 10]: 0.0058 µM
DISDVKVLAA	2.2	≥ 70				IC50 [1, 10]: 33.8 µM; IC50 [3, 10]: 4.61 µM; IC50 [4, 10]: 4.98 µM
SLKRFTHTT	0.0091	5.66	59.7	42	0.825	
AVIIMAINV	2.76					IC50 [1, 10]: 9.07 µM; IC50 [9, 10]: 0.963 µM; IC50 [3, 10]: 0.065 µM; IC50 [4, 10]: 1.24 µM
PLSINVSGV	0.045	6.54	17.9	22.5	1.12	
RILSEKRKDT	4.16	48.7	6.87	10	0.711	
GVPHSVFIA	3.63	5.35				IC50 [1, 10]: 5.37 µM; IC50 [3, 10]: 0.101 µM; IC50 [4, 10]: 2.99 µM
LLKETIQKDI	0.782	9.03	23.4	13.2	3.06	
HINDQKFDDV	1.16	13.2				IC50 [1, 10]: 5.86 µM; IC50 [3, 10]: 1.19 µM; IC50 [4, 10]: 1.12 µM
GIKGLDERFV	0.844					IC50 [1, 10]: 6.19 µM; IC50 [9, 10]: 4.39 µM; IC50 [3, 10]: 0.94 µM; IC50 [4, 10]: 0.492 µM
TTQIIKLLPFA						IC50 [5, 11]: 5.95 µM; IC50 [6, 11]: 11.6 µM; IC50 [7, 11]: 8.22 µM; IC50 [8, 11]: 2.19 µM; IC50 [2, 11]: 3.43 µM
SVGTGILFM	2.25	5.15	20.7	57.4	1.09	
NVKSKLLWFL	0.633	33.2	31.1	7.3	2.29	
LIKTLSPAHL	0.356	11.6	10.2	33.3	1.85	
IIAVFDSKLI	0.595	5.93	8.51	54.7	0.758	
PASKKESVI	1.76	18.8	10.3	≥ 70	1.35	
TLNEYKQLYT	0.773	11.5	≥ 70	≥ 70	0.144	
TLLNETAKVI	2.13	16.9	8.54	6.34	2.86	
YLVQQESSFV						IC50 ([1]; source organism: SARS-CoV1): 12.7 µM; IC50 ([9]; source organism: SARS-CoV1): 0.076 µM; IC50 ([2]; source organism: SARS-CoV1): 0.017 µM; IC50 ([3]; source organism: SARS-CoV1): 0.386 µM; IC50 ([4]; source organism: SARS-CoV1): 3.41 µM
WLTPFEKEFT	1.55	15.7	30.8	≥ 70	2.37	
FMNDLQVSR						IC50 [5, 12]: 6.25 µM; IC50 [6, 12]: 33.6 µM; IC50 [7, 12]: 26.3 µM; IC50 [8, 12]: 0.249 µM; IC50 [2, 12]: 0.915 µM
EMKYALINLV	0.283	7.36	9.84	≥ 70	1.26	

Sequence	IC50 [2, 10] [µM]	IC50 [5, 10] [µM]	IC50 [6, 10] [µM]	IC50 [7, 10] [µM]	IC50 [8, 10] [µM]	further results
KQNKFGDSPL	0.216	5.55	5.08	31.6	0.09	
LATLNTLIT	1.55	10.6	14.2	13.9	1.16	
EILSNTTKTL	0.101	10.1	≥ 70	15.1	0.345	
SVQLSNNKYV	0.82	55	8.83	11.3	1.22	
GLCNYGGILI	3.21	24.2	5.03	35.2	0.152	
RLRQDTEDIV	0.284	5.95	7.49	35.5	0.134	
VADLSARNKL	2.16	23	35.9	7.04	1.17	
IVCSKTVKNV	0.503					IC50 [1, 10]: 10.8 µM; IC50 [9, 10]: 1.42 µM; IC50 [3, 10]: 2.76 µM; IC50 [4, 10]: 1.73 µM
HLRASTTENA	0.038	20.1	≥ 70	36.3	0.488	
DTIAHINTLI	0.114	10.3	62.7	≥ 70	1.16	
AIRAGYSIV	0.00021	5.01	8.06	15.4	1.2	
CVNGSCFTV						IC50 [1, 11]: 12.4 µM; IC50 [9, 11]: 3.95 µM; IC50 [2, 11]: 1.13 µM; IC50 [3, 11]: 1.99 µM; IC50 [4, 11]: 3.25 µM
DINVIGLIVI	2.81					IC50 [1, 10]: 7.15 µM; IC50 [9, 10]: 1.35 µM; IC50 [3, 10]: 2.79 µM; IC50 [4, 10]: 2.19 µM
YLSKEDRII	0.435		10.5	≥ 70	0.305	IC50 [9, 10]: 1.5 µM
SAFDERRNKYL						IC50 [5, 11]: 24.3 µM; IC50 [6, 11]: ≥ 70 µM; IC50 [7, 11]: 14.1 µM; IC50 [8, 11]: 1.09 µM; IC50 [2, 11]: 2.48 µM
KCMSAALKNL						IC50 [6, 13]: 14 µM; IC50 [7, 13]: 43.5 µM; IC50 [9, 13]: 1.56 µM; IC50 [8, 13]: 0.058 µM; IC50 [2, 13]: 0.193 µM
NIYRLFTRCA	0.138					IC50 [1, 10]: 9.89 µM; IC50 [9, 10]: 0.81 µM; IC50 [3, 10]: 0.023 µM; IC50 [4, 10]: 0.25 µM
LVDKEDTDIV	1.68	≥ 70	27.2	56.8	3.7	
FTDCRTIDA	2.68					IC50 [1, 10]: 10.9 µM; IC50 [9, 10]: 3.77 µM; IC50 [3, 10]: 2.71 µM; IC50 [4, 10]: 3.42 µM
TISWMMKLGI	0.972					IC50 [1, 10]: 7.84 µM; IC50 [9, 10]: 4.57 µM; IC50 [3, 10]: 2.78 µM; IC50 [4, 10]: 1.48 µM
ALKNSQAELT	0.98	51	27.2	47.4	2.12	
ITRLEVIGL	0.213					IC50 [1, 10]: 5.51 µM; IC50 [9, 10]: 3.66 µM; IC50 [3, 10]: 0.776 µM; IC50 [4, 10]: 4.46 µM

Sequence	IC50 [2, 10] [µM]	IC50 [5, 10] [µM]	IC50 [6, 10] [µM]	IC50 [7, 10] [µM]	IC50 [8, 10] [µM]	further results
RLTILGKDA						IC50 [5, 11]: 10.9 µM; IC50 [6, 11]: ≥ 70 µM; IC50 [7, 11]: ≥ 70 µM; IC50 [8, 11]: 1.56 µM; IC50 [2, 11]: 3.51 µM
IVAAVIIMA	2.66					IC50 [1, 10]: 10.4 µM; IC50 [9, 10]: 1.81 µM; IC50 [3, 10]: 3.57 µM; IC50 [4, 10]: 0.024 µM
VLTILYYGA	0.018		6.24	18.6	0.0013	IC50 [9, 10]: 0.212 µM
NMKPNFWSRI	0.193	23.4	13.9	13.1	1.68	
LITNTKSDNI	3.08	≥ 70	18.8	20.7	2.25	
NLYISDYKML	1.83	7.88	35.9	30.9	1.25	
LMELPVKTDI	0.986		12.9	≥ 70	1.51	IC50 [9, 10]: 1.33 µM
EIDVSEVKTL	2.24	≥ 70	56.1	8.12	4.95	
YIENTNQGNI	0.582	34.5	6.2	42	1.22	
HIGHHYIWI	0.899		25.3	19.9	2.56	IC50 [9, 10]: 2.99 µM
ITFLRPVLKA	0.718	≥ 70	18	21.4	3.16	
AMHDKKIDIL	1.18	8.94	≥ 70	≥ 70	0.387	
NLVQYRILPM	1.33		24.5	≥ 70	3.99	IC50 [9, 10]: 1.44 µM
LLFLVLIMLI						IC50 ([6]; source organism: SARS-CoV1): 8.3 µM; IC50 ([7]; source organism: SARS-CoV1): 5.1 µM; IC50 ([9]; source organism: SARS-CoV1): 0.592 µM; IC50 ([8]; source organism: SARS-CoV1): 0.447 µM; IC50 ([2]; source organism: SARS-CoV1): 3.15 µM
EISSNDNAKI	0.194					IC50 [1, 10]: 11.2 µM; IC50 [9, 10]: 0.508 µM; IC50 [3, 10]: 0.162 µM; IC50 [4, 10]: 0.122 µM
SLKRFTHTTA	0.726		7.31	6.08	0.884	IC50 [9, 10]: 4.54 µM
VMPEKRNVVV	0.299		27.6	6.74	3.54	IC50 [9, 10]: 3.92 µM
QILDNAAKYV	3.87		11.4	35.8	3.93	IC50 [9, 10]: 3.48 µM
GIKNLKSLL	2.62	54.5	61.7	≥ 70	2.14	
AAFEDLRLL						IC50 [5, 11]: 15.5 µM; IC50 [6, 11]: 6.19 µM; IC50 [7, 11]: 18.1 µM; IC50 [8, 11]: 4.45 µM; IC50 [2, 11]: 1.47 µM
RTLFQQMRDVL						IC50 [5, 11]: 13.7 µM; IC50 [6, 11]: ≥ 70 µM; IC50 [7, 11]: ≥ 70 µM; IC50 [8, 11]: 1.89 µM; IC50 [2, 11]: 3.83 µM
EVIERINLLV	3.33					IC50 [1, 10]: 19.7 µM; IC50 [9, 10]: 2.69 µM; IC50 [3, 10]: 0.3 µM; IC50 [4, 10]: 0.02 µM
